According to patent US20060142223A1:

Target: human F0F1-ATP synthase (complex V) (human)
Experiment: cell-based or functional assay

mitochondrial (oligomycin-sensitive) ATP synthesis in mutant (8993G) cybrids stably transfected with pCrA6F, against untransfected mutant cybrids: 75%
B1: mature CrATP6F polypeptide (Chlamydomonas reinhardtii ATPase 6 subunit of F0F1-ATP synthase with C-terminal FLAG epitope tag, after cleavage of the … (protein)
chain: STAAQVQSGATVNSLLLGIYRFWRSQAPMDKPHAPVDDRMLPAIVDASDNRAALGTWATALFCTILASNLLGLVPTNEAPTSGLGFATGLGVSVWATATTLGLYKLGFSFPGHFIPGGTPWPMAFIFVPLETISYTFRAVSLGVRLWVNMLAGHTLLHILTGMALALPFSLSFFAMVPATFAVACLLSALVGLEYLVAVLQSGVFSILSTVYVGEFNSVKLAGPLAKVVKKALDYKDDDDK
